Test results from publication PMC3630103.

What was measured:
[1] = target: CHIKV-RSU1 virus (Asian genotype), envelope glycoproteins E2-E1 (Chikungunya virus (strain RSU1))
[2] = target: CHIKV-IbH35 virus (West African genotype), envelope glycoproteins E2-E1 (Chikungunya virus (strain IbH35))

Row | Binder | EC50 of neutralisation of CHIKV-RSU1 (FRNT on Vero cells) [1] [ng/mL] | EC90 of neutralisation of CHIKV-RSU1 (FRNT on Vero cells) [1] [ng/mL] | EC50 of neutralisation of CHIKV-IbH35 (FRNT on Vero cells) [2] [ng/mL] | EC90 of neutralisation of CHIKV-IbH35 (FRNT on Vero cells) [2] [ng/mL]
1 | CHK-263 (mouse monoclonal antibody) (antibody, V domains shown) VH: QVQLQQSGAELVKPGASVKISCKASGYAFSSYWMNWVKQRPGKGLEWIGQIYPGDGDTNYNGKFKGKATLTADKSSSTAYMQLSSLTSEDSAVYFCARGGLTIDYWGQGTTLTVSS VL: DIVLTQSPATLSVTPGDSVSLSCRASQSISDNLHWYQQKSHESPGLLIKYASQSISGIPSRFSGSGSGTDFTLSINSVETEDFGMYFCQQSNSWPYTFGGGTKLEIK | 4 | 48 | 2 | 51
2 | CHK-152 (mouse monoclonal antibody) (antibody, V domains shown) VH: QVQLQQPGAALVKPGASAMMSCKASGYTFTSYWITWVKQRPGQGLEWIGDIYPGTGRTIYKEKFKTKATLTVDTSSSTAFMQLNSLTSEDSAVYYCARGYGSPYYALDYWGQGTSVTVSS VL: DIVLTQSPASLAVSQGQRATISCKASQSVDYDGDSYVNWYQQKPGQSPKLLIYDASNLESGIPARFSGSGSGTDFTLNIHPVEEEDVATYYCQESNEDPRTFGGGTKLEIK | 3 | 15 | 1 | 6
3 | CHK-102 (mouse monoclonal antibody) (antibody, V domains shown) VH: QVQLQQSGAELVKPGASVKISCKTSGYAFSSFWMHWVKQRPGKGLEWIGQIYPGDGDTNYNGKFKDKATLTADKSSNTAYMQLTSLTSEDSAVYFCARNLLFDYWGQGTTLTVSS VL: EILMTQSPAILSVSPGERVSFSCRASQSIGSNIHWYQQRTNGSPRLLIKYASESISGIPSRFSGSGSGTDFTLSINSVESEDIADYYCQQNNIWPFTFGSGTKLEIK | 5 | 1320 | 6 | 104
4 | CHK-166 (mouse monoclonal antibody) (antibody, V domains shown) VH: EVRLVESGGGLEQPGGSLKLSCAASGFTFSDYFMYWVRQTPEKRLEWVAYISNGGISTFYSDAVKGRFTISRDNARNTLYLQMSRLKSEDTAIYYCVRQVYGQGYFDYWGQGTTLAVSS VL: QIVLIQSPAIMSASLGERVTMTCTASSSVSSSYLHWYQQKPGSSPKLWIYSSFSLASGVPARFSGSGSGTSYSLTISTMEAEDAATYYCHQYLRSPWTFGGGSKLEIK | 40 | 2180 | 82 | 2580
